B1: 3G16 (antibody, V domains shown)
VH: QSALTQPASVSGSPGESITISCTGTISDVGAYNSVSWYQQHSGTAPELIIYDVTNRPAGVSSRFSGSKSGNTASLTISWLQSEDEAEYYCSSYTTSDTYVFGSGTQVTVL
V domain: RAQLVQSAAEMKNPGASVKVSCEASGYTFTGYYVHWMRQAPGQGLEWMGWINPMTGATKSPQKFQGRVTMTRDTSTTATHIELTRLRSDDSAVFFCARGGPTSTRITGKRHFDLWGRGTLITVAS
notes: human IgG; also called 3G16-biotin
B2: 13H11 (antibody, V domains shown)
VH: QVQLVQSGAEVKKPGASVKVSCKASGYTFTNYYIHWVRQAPGQGLEWMGIIHPSSGGTSYAQKFQGRVTMTRDTSTSTVSMDLSSLRSEDTAVYYCGRAFRILGLSDVFVNDWGQGTVVTVSS
VL: DIQMTQSPSSLSASVGDRVTITCRASQGINNYLAWYQQKPGKVPKLLIYAASTLQSGVPSRFSGSGSGTAFTLTILSLQPEDVATYYCQKYNSAPFTFGPGTKVDIK
B3: 11B12 (antibody, V domains shown)
VH: QMQLVQSGPQVKKPGTSVKVSCKASGFTFTSSAMQWVRQARGQRPEWIGWIVLGSGNTNYAQKFQERVTLTRDMSTATAYMELSSLRSEDTAVYYCAADRGRGGYNVYTYWGQGTLVAVSS
VL: EIVMTQSPGTLSLSPGERATLSCRASQTISNTYVAWYQQKPGQAPRLLIYGASSRATGIPDRFSGSGSGTDFTLTIRRLEPEDFAVYYCQQNGQSPWTFGQGTNVEIK

Tests used:
[1] = molecular target: T1, hCMV gH + gL + UL128 + UL130 + UL131A (5-member complex; HEK293T co-transfectant) (hCMV, UniProt P12824 24-743; P16832 31-278; P16837 1-171; P16772 1-214); test: cell competition; competitor 8I21-biotin
T1 construct: whole, on cells; in the functional rows it stands for the complex on virions or transduced cells of the strain or isolate named in the readout; also called gH/gL/UL128-131A complex; pentameric complex

[2] = molecular target: T1, hCMV gH + gL + UL128 + UL130 + UL131A …; test: cell competition; competitor 2C12-biotin
[3] = molecular target: T2, hCMV gH (HEK293T transfectant) (hCMV, UniProt P12824 24-743); test: cell-based or functional assay
[4] = molecular target: T1, hCMV gH + gL + UL128 + UL130 + UL131A …; test: cell competition; competitor 6G4-biotin
[5] = molecular target: T2, hCMV gH (HEK293T transfectant); test: cell-based or functional assay; remark: listed apart in the source

Binder	Inhibition of binding (%) [1] [%]	Inhibition of binding (%) [2] [%]	50% neutralization VR1814, ARPE [3] [µg/mL]	50% neutralization VR1814, MRC-9 [3] [µg/mL]	Inhibition of binding (%) [4] [%]	90% neutralization VR1814, ARPE [5] [µg/mL]	90% neutralization VR1814, MRC-9 [5] [µg/mL]
B1	0	0	≤ 2	≤ 2	0	0.3	1
B2	–	–	< 0.01	≤ 2	–	0.4	1.12
B3	–	–	≤ 2	≤ 2	–	1.2	3.5

Reference: patent publication US20170296650A1 (Novartis, published 2017)
